Test results as given in patent US11542537B2, “High-purity steviol glycosides” (PureCircle Sdn Bhd, priority 2012, dated 2023).
Substitutions are numbered along the chain they refer to.

B1: UGT76G1: UDP-glucosyltransferase of Stevia rebaudiana, Genbank AAR06912.1, produced in E. coli or in vitro (protein, UniProt Q6VAB4 1-458, looked up)
UDP-glycosyltransferase 76G1: MENKTETTVRRRRRIILFPVPFQGHINPILQLANVLYSKGFSITIFHTNFNKPKTSNYPHFTFRFILDNDPQDERISNLPTHGPLAGMRIPIINEHGADELRRELELLMLASEEDEEVSCLITDALWYFAQSVADSLNLRRLVLMTSSLFNFHAHVSLPQFDELGYLDPDDKTRLEEQASGFPMLKVKDIKSAYSNWQILKEILGKMIKQTKASSGVIWNSFKELEESELETVIREIPAPSFLIPLPKHLTASSSSLLDHDRTVFQWLDQQPPSSVLYVSFGSTSEVDEKDFLEIARGLVDSKQSFLWVVRPGFVKGSTWVEPLPDGFLGERGRIVKWVPQQEVLAHGAIGAFWTHSGWNSTLESVCEGVPMIFSDFGLDQPLNARYMSDVLKVGVYLENGWERGEIANAIRRVMVDEEGEYIRQNARVLKQKADVSLMKGGSSYESLESLVSYISSL
B2: UGT76G1var94: UGT76G1 variant containing mutations Q266E_P272A_R334K_G348P_L379G (protein, UniProt Q6VAB4 1-458, looked up, variant Q266E P272A R334K G348P L379G)
UDP-glycosyltransferase 76G1: B1 UDP-glycosyltransferase 76G1 with Q266E, P272A, R334K, G348P, L379G

Experiments:
Assay type in all cases: biochemical
[1] = UGT76G1 lysate activity test, Stevioside to Rebaudioside A (HPLC); details: in-vivo produced UGT76G1 thawed lysate, 0.5 mM Stevioside, 30° C.
Method: The total volume of the reaction was 5.0 mL with the following composition: 50 mM sodium phosphate buffer pH 7.2, 3 mM MgCl2, 2.5 mM UDP-glucose, 0.5 mM Stevioside and 500 μL of UGT76G1 thawed lysate. The reactions were run at 30° C. on an orbitary shaker at 135 rpm. For each sample, 460 μL of the reaction mixture was quenched with 40 μL of 2N H2SO4 and 420 μL of methanol/water (6/4). The samples were immediately centrifuged and kept at 10° C. before analysis by HPLC (CAD).
(§1) Activity tests were performed on a 5 mL scale with 500 μL of thawed lysate for the transformation of Stevioside to Rebaudioside A and Rebaudioside D to Rebaudioside M using 0.5 mM of substrate, 2.5 mM of UDP-Glucose and 3 mM MgCl2 in 50 mM Sodium Phosphate buffer at pH 7.2. Samples were taken and analyzed by HPLC.

[2] = UGT76G1 activity test, Rebaudioside D to Rebaudioside M (HPLC); details: in-vitro produced UGT76G1, 0.5 mM Rebaudioside D, after 120 h
Method: The total volume of the reaction was 2 mL with the following composition: 50 mM sodium phosphate buffer pH 7.2, 3 mM MgCl2, 3.8 mM UDP-glucose, 0.5 mM Rebaudioside D and 180 μL of in-vitro produced UGT76G1. The reactions were run at 30° C. on an orbitary shaker at 135 rpm. For each sample, 400 μL of reaction mixture was quenched with 40 μL of 2N H2SO4 and 360 μL of 60% MeOH. After centrifugation, the supernatant was analyzed by HPLC (CAD).
as §1
5 mL of the lysate of Example 12 was used to transform Rebaudioside D to Rebaudioside M on a 50 mL scale. The reaction medium consisted of 50 mM Sodium Phosphate buffer pH 7.2, 3 mM of MgCl2, 2.5 mM of UDP-Glucose and 0.5 mM of Rebaudioside D. After allowing the reaction to be shaken at 30° C. for 90 h. 50 mL of ethanol was added and the resulting mixture was allowed to stir at −20° C. for 1 h. After centrifugation at 5000 g for 10 min. the supernatant was purified via ultrafiltration (Vivaflow MWCO 30000). […]

[3] = Conversion of Rebaudioside E to Rebaudioside D with UGT76G1 lysate; details: 500 μL UGT76G1 thawed lysate, 0.5 mM Rebaudioside E, 30° C., pH 7.5
Method: The total volume of the reaction was 5.0 mL with the following composition: 100 mM potassium phosphate buffer pH 7.5, 3 mM MgCl2, 2.5 mM UDP-glucose, 0.5 mM Rebaudioside E and 500 μL of UGT76G1 thawed lysate (UGT76G1 gene was cloned in pET30a+ vector and expressed in E. coli BL21 (DE3)). The reactions were run at 30° C. on an orbitary shaker at 135 rpm. For sampling 300 μL of the reaction mixture was quenched with 30 μL of 2N H2SO4 and 270 μL of methanol/water (6/4). The samples were immediately centrifuged and kept at 10° C. before analysis by HPLC (CAD detection).

[4] = Directed evolution of UGT76G1 round 1, variant lysates, Rebaudioside D to Rebaudioside M conversion and initial rate
Method: Lysis was performed by addition of Bugbuster® Master mix (Novagen®) to the thawed cells and the lysate was recovered by centrifugation. Activity tests were performed with 100 μL of fresh lysate that was added to a solution of Rebaudioside D (final concentration 0.5 mM), MgCl2 (final concentration 3 mM) and UDP-Glucose (final concentration 2.5 mM) in 50 mM phosphate buffer pH 7.2.
The reaction was allowed to run at 30° C. and samples were taken after 2, 4, 7 and 24 h. to determine conversion and initial rate by HPLC (CAD detection) using the analytical method that was described above for the transformation of Rebaudioside D to Rebaudioside M. The results are depicted in the following table.

| Molecule | conversion of stevioside to rebaudioside A (HPLC) [1] | conversion of rebaudioside D to rebaudioside M (HPLC) [2] [%] | conversion of Rebaudioside E to Rebaudioside D (reaction profile) [3] | activity ranking in first round of directed evolution, Rebaudioside D to Rebaudioside M [4] |
| --- | --- | --- | --- | --- |
| B1 | almost complete conversion | 80 | complete conversion |  |
| B2 |  |  |  | most active clone |
